Experimental data: patent US20190233493A1 (Sanofi, published 2019)
One block for each binder: values may come before it. *1 amine or outer side, *2 acyl side, *3 side chain or, on linkers, in order; H or OH if unused. Primed or numbered codes have the meaning given here. Side-chain parts run from the residue outwards. [ ]: non-standard residue; d: D form. The star is where a group is joined. PEG4′ = 2-[2-[2-[2-[2-aminoethoxy]ethoxy]ethoxy]ethoxy]propanoyl; Lys(Me3) = C[N+](C)(C)CCCC[C@H](N)C(=O)O; αMeW = C[C@](N)(Cc1c[nH]c2ccccc12)C(=O)O; γGlu = O=C(O)[C@H](CCC(=O)[*:2])N[*:1]; Arg(Me) = CNC(=N)NCCC[C@H](N)C(=O)O; Stearoyl = CCCCCCCCCCCCCCCCCC(=O)*; Palmitoyl = CCCCCCCCCCCCCCCC(=O)*; Cit = NC(=O)NCCC[C@H](N)C(=O)O; αMeK = C[C@](N)(CCCCN)C(=O)O; Nle = CCCC[C@H](N)C(=O)O; PEG2′ = PEG2 spacer unit; PEG2″ = not defined here; Aib = CC(C)(N)C(=O)O

Biological target: T1, RXFP1 receptor (UniProt Q9HBX9 1-757, limits assumed)
T1 sequence (looked up): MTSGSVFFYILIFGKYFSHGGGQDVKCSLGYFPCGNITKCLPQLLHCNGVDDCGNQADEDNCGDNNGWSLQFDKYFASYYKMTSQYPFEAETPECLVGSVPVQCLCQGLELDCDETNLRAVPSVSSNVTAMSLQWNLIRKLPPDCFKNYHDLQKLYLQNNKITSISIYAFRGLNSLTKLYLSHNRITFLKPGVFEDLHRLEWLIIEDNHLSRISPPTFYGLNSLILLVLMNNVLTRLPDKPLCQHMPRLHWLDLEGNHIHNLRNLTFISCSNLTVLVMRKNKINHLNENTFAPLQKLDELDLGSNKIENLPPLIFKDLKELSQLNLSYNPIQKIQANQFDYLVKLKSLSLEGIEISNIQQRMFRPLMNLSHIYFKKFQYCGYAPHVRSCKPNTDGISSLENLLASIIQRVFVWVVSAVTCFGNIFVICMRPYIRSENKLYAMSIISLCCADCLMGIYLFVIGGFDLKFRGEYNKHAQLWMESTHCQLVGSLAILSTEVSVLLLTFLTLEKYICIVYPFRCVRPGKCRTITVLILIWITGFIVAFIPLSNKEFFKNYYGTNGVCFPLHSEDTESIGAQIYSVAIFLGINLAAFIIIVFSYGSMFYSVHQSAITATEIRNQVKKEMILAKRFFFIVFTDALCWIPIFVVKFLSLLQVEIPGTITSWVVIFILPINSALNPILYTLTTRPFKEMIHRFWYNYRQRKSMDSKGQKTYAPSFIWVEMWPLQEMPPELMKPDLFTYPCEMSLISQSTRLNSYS
Assay: cell-based or functional assay

EC50 (nM), OVCAR 5 cells (cAMP): 0.21 nM | EMax, OVCAR 5 cells (cAMP): 92%
Binder: Ac-LEGREKVRAK(Ac)I[Aib][Aib]EG[Nle]STWS[Aib][Arg(Me)][Lys(Me3)]K(Ac)K([PEG2′-PEG2′-PEG2′-γGlu-γGlu-γGlu-Stearoyl])-NH2 [peptide of SEQ ID NO: 137]

EC50 (nM), OVCAR 5 cells (cAMP): 0.4 nM | EMax, OVCAR 5 cells (cAMP): 88%
Binder: Ac-LEGREKVRAK(Ac)I[Aib][Aib]EG[Nle]STFS[αMeK]RKK(Ac)[PEG2′][PEG2′][PEG2′][PEG2′]K([γGlu-γGlu-γGlu-γGlu-Palmitoyl])-NH2 [peptide of SEQ ID NO: 143]

EC50 (nM), OVCAR 5 cells (cAMP): 0.16 nM | EMax, OVCAR 5 cells (cAMP): 87%
Binder: Ac-LEGREKVRAK(Ac)I[Aib][Aib]EG[Nle]STWS[αMeK][Arg(Me)][Lys(Me3)]K(Ac)K([PEG2′-PEG2′-PEG2′-PEG2′-γGlu-γGlu-γGlu-γGlu-Palmitoyl])-NH2 [peptide of SEQ ID NO: 141]

EC50 (nM), OVCAR 5 cells (cAMP): 0.38 nM | EMax, OVCAR 5 cells (cAMP): 88%
Binder: Ac-LEGREKVRAK(Ac)I[Aib][Aib]EG[Nle]STWS[Aib]RKK(Ac)[PEG4′]K([γGlu-γGlu-γGlu-Stearoyl])-NH2 [peptide of SEQ ID NO: 123]

EC50 (nM), OVCAR 5 cells (cAMP): 0.3 nM | EMax, OVCAR 5 cells (cAMP): 93%
Binder: Ac-LEGREKVRAK(Ac)I[Aib][Aib]EG[Nle]STWS[Aib]RKK(Ac)K([PEG2′-PEG2′-PEG2′-PEG2′-γGlu-γGlu-γGlu-γGlu-Palmitoyl])-NH2 [peptide of SEQ ID NO: 130]

EC50 (nM), OVCAR 5 cells (cAMP): 4.1 nM | EMax, OVCAR 5 cells (cAMP): 94%
Binder: Ac-LEGREKVRAK(Ac)I[Aib][Aib]EG[Nle]STFS[Aib]RKK(Ac)[PEG2′][PEG2′][PEG2′][PEG2′]K([γGlu-γGlu-γGlu-Palmitoyl])-NH2 [peptide of SEQ ID NO: 144]

EC50 (nM), OVCAR 5 cells (cAMP): 8.1 nM | EMax, OVCAR 5 cells (cAMP): 81%
Binder: Ac-LEGREKVRAQI[Aib][Aib]EG[Nle]STWS[Aib]RK[PEG2′]K([PEG2′-PEG2′-γGlu-γGlu-γGlu-Palmitoyl])-NH2 [peptide of SEQ ID NO: 13]

EC50 (nM), OVCAR 5 cells (cAMP): 9.6 nM | EMax, OVCAR 5 cells (cAMP): 91%
Binder: Ac-LEGREKVRAK(Ac)I[Aib][Aib]EG[Nle]STWS[Aib][Cit]AK(Ac)K([PEG2′-PEG2′-PEG2′-γGlu-γGlu-γGlu-Stearoyl])-NH2 [peptide of SEQ ID NO: 126]

EC50 (nM), OVCAR 5 cells (cAMP): 0.3 nM | EMax, OVCAR 5 cells (cAMP): 92%
B4: peptide of SEQ ID NO: 139 (peptide)
peptide: Ac-LEGREKVRAK(Ac)I[Aib][Aib]EG[Nle]STFSXAAK(Ac)[PEG2′][PEG2′][PEG2′][PEG2′][γGlu][γGlu][γGlu]K([γGlu-Palmitoyl])-NH2
modifications: not fully specified (some residues); printed as Ac-L-E-G-R-E-K-V-R-A-K(Ac)-I-Aib-Aib-E-G-Nle-S-T-F-S-Mly-A-A-K(Ac)-PEG2-PEG2-PEG2-PEG2-gE-gE-gE-K(gE-Palm)-NH2

Further lines, the binder ahead of its results:

B1: peptide of SEQ ID NO: 122 (peptide)
peptide: LEGREKVRAQIXXEGXSTWSXRKKKX
modifications: Ac-L-E-G-R-E-K-V-R-A-Q-I-Aib-Aib-E-G-Nle-S-T-W-S-Aib-R-K-K-K-PEG4-PEG4-K(gE-gE-gE-gE-gE-Stea)-NH2
EC50 (nM), OVCAR 5 cells (cAMP): 0.1 nM | EMax, OVCAR 5 cells (cAMP): 93%

Binder: Ac-LEGREKVRAK(Ac)I[Aib][Aib]EG[Nle]ST[αMeW]S[αMeK]RKK(Ac)[PEG2′][PEG2′][PEG2′]K([γGlu-γGlu-γGlu-γGlu-Palmitoyl])-NH2 [peptide of SEQ ID NO: 125]
EC50 (nM), OVCAR 5 cells (cAMP): 0.1 nM | EMax, OVCAR 5 cells (cAMP): 89%

Binder: Ac-LEGREKVRAK(Ac)I[Aib][Aib]EG[Nle]STWS[αMeK][Cit]AK(Ac)K([PEG2′-PEG2′-PEG2′-PEG2′-γGlu-γGlu-γGlu-Stearoyl])-NH2 [peptide of SEQ ID NO: 132]
EC50 (nM), OVCAR 5 cells (cAMP): 1.7 nM | EMax, OVCAR 5 cells (cAMP): 87%

Binder: Ac-LEGREKVRAK(Ac)I[Aib][Aib]EG[Nle]STWS[αMeK]RAK(Ac)K([PEG2′-PEG2′-PEG2′-PEG2′-γGlu-γGlu-γGlu-Stearoyl])-NH2 [peptide of SEQ ID NO: 135]
EC50 (nM), OVCAR 5 cells (cAMP): 0.95 nM | EMax, OVCAR 5 cells (cAMP): 97%

Binder: Ac-LEGREKVRAK(Ac)I[Aib][Aib]EG[Nle]STWS[Aib]R[Lys(Me3)]K(Ac)K([PEG2′-PEG2′-PEG2′-γGlu-γGlu-γGlu-Stearoyl])-NH2 [peptide of SEQ ID NO: 134]
EC50 (nM), OVCAR 5 cells (cAMP): 6.3 nM | EMax, OVCAR 5 cells (cAMP): 100%

Binder: Ac-LEGREKVRAK(Ac)I[Aib][Aib]EG[Nle]STWS[αMeK]RKK(Ac)[PEG2′][PEG2′][PEG2′][PEG2′]K([γGlu-γGlu-γGlu-γGlu-Palmitoyl])-NH2 [peptide of SEQ ID NO: 131]
EC50 (nM), OVCAR 5 cells (cAMP): 0.26 nM | EMax, OVCAR 5 cells (cAMP): 92%

Binder: Ac-LEGREKVRAK(Ac)I[Aib][Aib]EG[Nle]STWS[Aib]RKK(Ac)K([PEG2′-PEG2′-PEG2′-γGlu-γGlu-γGlu-γGlu-Stearoyl])-NH2 [peptide of SEQ ID NO: 128]
EC50 (nM), OVCAR 5 cells (cAMP): 0.22 nM | EMax, OVCAR 5 cells (cAMP): 91%

Binder: Ac-LEGREKVRAK(Ac)I[Aib][Aib]EG[Nle]STWS[Aib]RKK[PEG2″][PEG2″][PEG2″][PEG2″]K([γGlu-γGlu-γGlu-γGlu-Stearoyl])-NH2 [peptide of SEQ ID NO: 15]
EC50 (nM), OVCAR 5 cells (cAMP): 0.32 nM | EMax, OVCAR 5 cells (cAMP): 92%

B2: peptide of SEQ ID NO: 136 (peptide)
peptide: Ac-LEGREKVRAK(Ac)I[Aib][Aib]EG[Nle]STWSXRKK(Ac)[PEG2′][PEG2′][PEG2′][PEG2′][γGlu][γGlu][γGlu]K([γGlu-Palmitoyl])-NH2
modifications: not fully specified (some residues); printed as Ac-L-E-G-R-E-K-V-R-A-K(Ac)-I-Aib-Aib-E-G-Nle-S-T-W-S-Mly-R-K-K(Ac)-PEG2-PEG2-PEG2-PEG2-gE-gE-gE-K(gE-Palm)-NH2
EC50 (nM), OVCAR 5 cells (cAMP): 0.03 nM | EMax, OVCAR 5 cells (cAMP): 92%

B3: peptide of SEQ ID NO: 145 (peptide)
peptide: Ac-LEGREKVRAK(Ac)I[Aib][Aib]EG[Nle]STFSXRKK(Ac)[PEG2′][PEG2′][PEG2′][PEG2′][γGlu][γGlu][γGlu]K([γGlu-Palmitoyl])-NH2
modifications: not fully specified (some residues); printed as Ac-L-E-G-R-E-K-V-R-A-K(Ac)-I-Aib-Aib-E-G-Nle-S-T-F-S-Mly-R-K-K(Ac)-PEG2-PEG2-PEG2-PEG2-gE-gE-gE-K(gE-Palm)-NH2
EC50 (nM), OVCAR 5 cells (cAMP): 0.4 nM | EMax, OVCAR 5 cells (cAMP): 99%

Binder: Ac-LEGREKVRAK(Ac)I[Aib][Aib]EG[Nle]STWS[Aib][Arg(Me)]KK(Ac)K([PEG2′-PEG2′-PEG2′-γGlu-γGlu-γGlu-Stearoyl])-NH2 [peptide of SEQ ID NO: 133]
EC50 (nM), OVCAR 5 cells (cAMP): 0.01 nM | EMax, OVCAR 5 cells (cAMP): 83%

Binder: Ac-LEGREKVRAK(Ac)I[Aib][Aib]EG[Nle]STWS[Aib]RKK(Ac)[PEG2′][PEG2′][PEG2′]K([γGlu-γGlu-γGlu-Stearoyl])-NH2 [peptide of SEQ ID NO: 14]
EC50 (nM), OVCAR 5 cells (cAMP): 0.04 nM | EMax, OVCAR 5 cells (cAMP): 88%

Binder: Ac-LEGREKVRAK(Ac)I[Aib][Aib]EG[Nle]STWS[αMeK][Arg(Me)][Lys(Me3)]K(Ac)K([PEG2′-PEG2′-PEG2′-γGlu-γGlu-γGlu-Stearoyl])-NH2 [peptide of SEQ ID NO: 138]
EC50 (nM), OVCAR 5 cells (cAMP): 0.02 nM | EMax, OVCAR 5 cells (cAMP): 91%

Binder: Ac-LEGREKVRAK(Ac)I[Aib][Aib]EG[Nle]STWS[αMeK][Cit]KK(Ac)K([PEG2′-PEG2′-PEG2′-γGlu-γGlu-γGlu-Stearoyl])-NH2 [peptide of SEQ ID NO: 129]
EC50 (nM), OVCAR 5 cells (cAMP): 1 nM | EMax, OVCAR 5 cells (cAMP): 89%

Binder: Ac-LEGREKVRAK(Ac)I[Aib][Aib]EG[Nle]STFS[αMeK]RKK(Ac)K([PEG2′-PEG2′-PEG2′-PEG2′-γGlu-γGlu-γGlu-γGlu-Palmitoyl])-NH2 [peptide of SEQ ID NO: 140]
EC50 (nM), OVCAR 5 cells (cAMP): 0.4 nM | EMax, OVCAR 5 cells (cAMP): 88%

Binder: Ac-LEGREKVRAK(Ac)I[Aib][Aib]EG[Nle]STWS[Aib]RKK(Ac)[PEG4′][PEG4′]K([γGlu-γGlu-γGlu-Stearoyl])-NH2 [peptide of SEQ ID NO: 124]
EC50 (nM), OVCAR 5 cells (cAMP): 0.29 nM | EMax, OVCAR 5 cells (cAMP): 88%
